Columns and labels:
[1] = target: recombinant Api m 2 (rApi m 2), venom hyaluronidase (honeybee, UniProt Q08169 34-382); experiment: ELISA, immobilized rApi m 2, purified nanobody
[2] = target: T1, native Api m 1 (nApi m 1), phospholipase A2 from honeybee venom (Apis mellifera, UniProt P00630 34-167)
[3] = target: T1, native Api m 1 (nApi m 1), …; experiment: cell-based or functional assay
[4] = target: T1, native Api m 1 (nApi m 1), …; experiment: monoclonal phage ELISA (phage-displayed nanobody) on immobilized Api m 1 or AM1-4 IgG/Api m 1 complexes; positive clones
[5] = target: T1, native Api m 1 (nApi m 1), …; experiment: BLI, compared with AM1-1 IgG1

T1 sequence (P00630 34-167): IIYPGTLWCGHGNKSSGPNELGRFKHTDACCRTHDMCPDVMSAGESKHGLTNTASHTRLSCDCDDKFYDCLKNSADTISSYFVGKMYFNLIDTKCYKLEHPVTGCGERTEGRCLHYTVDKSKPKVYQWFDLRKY
Sequence of recombinant Api m 2 (rApi m 2), venom hyaluronidase (Q08169 34-382): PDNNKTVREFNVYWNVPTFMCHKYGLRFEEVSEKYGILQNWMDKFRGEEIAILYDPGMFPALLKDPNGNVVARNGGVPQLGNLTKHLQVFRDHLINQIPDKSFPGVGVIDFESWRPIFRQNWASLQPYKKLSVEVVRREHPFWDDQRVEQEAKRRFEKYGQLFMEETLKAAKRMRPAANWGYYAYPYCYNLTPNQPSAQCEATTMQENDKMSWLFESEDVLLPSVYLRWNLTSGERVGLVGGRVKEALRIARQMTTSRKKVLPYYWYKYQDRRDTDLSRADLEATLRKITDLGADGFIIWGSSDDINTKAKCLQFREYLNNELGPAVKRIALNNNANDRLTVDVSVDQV

B1: nanobody AM2-O2 (VHH, not shown: small tags and cut ends)
VHH: EVQLQESGGGLVQAGGSLRLSCAASGDTICISAMGWYRQAPGKERELVAVITSADSTNYADSVKGRFTISRAGAKNTLYLQMNSLKPEDTAVYYCNAHTPKYSDFEVTCYEYDYWGQGTLVSVS
**Q.** Does B1 bind [1]?
**A.** binds

B2: AM1-1 IgG1 (monospecific nanobody-based human IgG1) (Fc fusion)
chain: QVQLVETGGGLVQAGGSLRLSCATSGTIFSRATMAWYRQTPGKQREWVTTITTSGNTNYADSVKGRFTISRDNAESTLYLQMNSLKPEDTAVYYCNAQFLSSRTNYWGKGTQVTVS
**Q.** What does the source list for B2?
**A.** Kd [2]: 1.94 nM; inhibition of basophil activation (CD63 positive), Patient 1 [3]: 16%; inhibition of basophil activation (CD63 positive), Patient 2 [3]: 7%

B3: mix of the two monospecific nanobody-based human IgG1 (AM1-1 IgG1 and AM1-4 IgG1) (other)
chain 1: B2 chain
chain 2: QVQLVESGGGLVQAGGSLRLSCAASGRTFSRYAMGWFRQAPGKEREFVSAISGSGGFTDYADSVKGRFTISRDNAKSTVYLRMSSLKPEDTAVYYCAAEGSRGSSTRLDARGTYDYWGQGTQVTVS
**Q.** Which results are given for B3?
**A.** inhibition of basophil activation (CD63 positive), Patient 1 [3]: 69%; inhibition of basophil activation (CD63 positive), Patient 2 [3]: 38%

B4: nanobody AM1-21 (VHH, not shown: small tags and cut ends)
VHH: QVQLVESGGGLVQAGGSLRLSCAASGFTLDYYAIGWFRQAPGKEREGVSCITSYDDSTYYTDSVKGRFTISRDNAKNTVYLQMNSLKPEDTAVYYCAAVGTWYLVNWWAPSEYDYWGQGTQVTVS
notes: also called A7
**Q.** Does B4 bind [4]?
**A.** binds

B5: AM1-21 IgG1 (nanobody-based human IgG1) (Fc fusion)
chain: B4 VHH
**Q.** With B5 as the binder, how does the “fold higher affinity than AM1-1 IgG1” value [5] read?
**A.** ~100 fold

**Q.** What about the Kd [2] of the same binder?
**A.** 0.0153 nM

B6: nanobody AM2-C2 (VHH, not shown: small tags and cut ends)
VHH: EVQLQESGGGLVQPGGSLRLSCAASGTTINIGAARWYRQAPGKQREVVAGISFGGATNYIDSVKGRFTISRGDALNTWYLQMNNLKPEDTAVYYCNARGEWGQGTQVAVS
**Q.** Does B6 bind [1]?
**A.** binds

B7: AM1-4 IgG1 (monospecific nanobody-based human IgG1) (Fc fusion)
chain: B3 chain 2
**Q.** Which Kd [2] does the source give for B7 here?
**A.** 0.3 nM

**Q.** And the “inhibition of basophil activation (CD63 positive), Patient 1” value [3]?
**A.** 44%

**Q.** And the “inhibition of basophil activation (CD63 positive), Patient 2” value [3]?
**A.** 23%

B8: nanobody AM1-22 (VHH, not shown: small tags and cut ends)
VHH: QVQLVESGGGLVQAGGSLRLSCAASGSIFNWAWYRQFPGKQREWVATITSGGNTNLADSVKGRFTISLDNAKNTMYLQMNSLKPEDTAVYYCNSARFRNRDAIWGQGTQVTVS
notes: also called B4
**Q.** Does B8 bind [4]?
**A.** binds

B9: AM1-22 IgG1 (nanobody-based human IgG1) (Fc fusion)
chain: B8 VHH
**Q.** How did the “fold higher affinity than AM1-1 IgG1” value [5] turn out when B9 was run?
**A.** ~100 fold

**Q.** What about the Kd [2] of the same binder?
**A.** < 0.001 nM

— patent US20250206812A1 (AARHUS UNIVERSITET, published 2025)
